The source of these data is PMC314469, “Protein Interaction Networks by Proteome Peptide Scanning” (PLoS Biology, 2004).

First the molecules themselves.
T1: Abp1 SH3 (ABP1_YEAST), P15891
T1 chain: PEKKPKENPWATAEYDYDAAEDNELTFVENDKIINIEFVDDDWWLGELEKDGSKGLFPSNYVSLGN

The assay concerns the target T1, Abp1 SH3 (ABP1_YEAST), P15891. The experiment in a line: SPOT array.
For PKQTIHVLEQPDRP [YDR158W 295-308], the normalised SPOT signal, Boehringer light units (BLU); mean over the file's lines of this peptide is 62.2.

With PIIKWFGPLEYKP [YCL044C 243-255], the normalised SPOT signal, Boehringer light units (BLU); mean over the file's lines of this peptide was 85.4.

NSSFFNQPPVHRP [YPR185W 391-403] came in with a normalised SPOT signal, Boehringer light units (BLU); mean over the file's lines of this peptide of 20.4.

As for PDSSFDKVETPPKP [YDR085C 528-541], the normalised SPOT signal, Boehringer light units (BLU); mean over the file's lines of this peptide is 196.

PGEMLMRIFFPKKP [YBR041W 461-474] yielded a normalised SPOT signal, Boehringer light units (BLU); mean over the file's lines of this peptide of 561.

As to NYNSNNNAGSPIRP [YGL073W 519-532], the normalised SPOT signal, Boehringer light units (BLU); mean over the file's lines of this peptide was 58.5.

PKTMAKIPVSVKP [YGL035C 180-192] had a normalised SPOT signal, Boehringer light units (BLU); mean over the file's lines of this peptide of 1630.

For the molecule PAKQKTPPSPAKP [YBR102C 23-35], the normalised SPOT signal, Boehringer light units (BLU); mean over the file's lines of this peptide was found to be 557.

PIMKFSTPSYKKP [YKL064W 123-135]: the normalised SPOT signal, Boehringer light units (BLU); mean over the file's lines of this peptide amounted to 726.

As to NSLIIGVDIVPMKP [YCL054W 71-84], the normalised SPOT signal, Boehringer light units (BLU); mean over the file's lines of this peptide was 175.

PDLRLTKSGKPKKP [YDR464W 659-672] had a normalised SPOT signal, Boehringer light units (BLU); mean over the file's lines of this peptide of 131.

NVTKETKEILPVKP [YCL014W 801-814] yielded a normalised SPOT signal, Boehringer light units (BLU); mean over the file's lines of this peptide of 43.

PDEVLTKMNAPQKP [YCR004C 43-56] displayed a normalised SPOT signal, Boehringer light units (BLU); mean over the file's lines of this peptide of 81.4.

Turning to PEPMKNLTNRPKRP [YNL216W 571-584], the normalised SPOT signal, Boehringer light units (BLU); mean over the file's lines of this peptide is 913.

The molecule PIANTQYGDIPVRP [YOL004W 624-637] had a normalised SPOT signal, Boehringer light units (BLU); mean over the file's lines of this peptide of 67.

Molecule NSSQRSQLRFPEKP [YNL139C 1491-1504] returned a normalised SPOT signal, Boehringer light units (BLU); mean over the file's lines of this peptide of 705.

NTMVEMKRKKPVRP [YDR436W 382-395] displayed a normalised SPOT signal, Boehringer light units (BLU); mean over the file's lines of this peptide of 1120.

Take NYSIKYMLLEPSKP [YPL008W 555-568]: the normalised SPOT signal, Boehringer light units (BLU); mean over the file's lines of this peptide was determined as 103.

As to PFHVQETMDFPYKP [YLR072W 386-399], the normalised SPOT signal, Boehringer light units (BLU); mean over the file's lines of this peptide came to 53.

PKKPFFTPWKPRP [YNL137C 417-429] yielded a normalised SPOT signal, Boehringer light units (BLU); mean over the file's lines of this peptide of 1330.

NSNGPTPAVLPQKP [YDL053C 27-40] yielded a normalised SPOT signal, Boehringer light units (BLU); mean over the file's lines of this peptide of 56.

NVTDPLAAIYPSRP [YGR237C 285-298] displayed a normalised SPOT signal, Boehringer light units (BLU); mean over the file's lines of this peptide of 40.9.

In turn, NSMTGIAQILPTKP [YLR082C 61-74] showed a normalised SPOT signal, Boehringer light units (BLU); mean over the file's lines of this peptide of 185.

As to PFKTSSTPTTPERP [YHR182W 754-767], the normalised SPOT signal, Boehringer light units (BLU); mean over the file's lines of this peptide worked out at 138.

For the molecule NVDDSVLRQKPDKP [YMR032W 377-390], the normalised SPOT signal, Boehringer light units (BLU); mean over the file's lines of this peptide was determined as 116.

PDYIRSIAVHPTKP [YGL137W 97-110] showed a normalised SPOT signal, Boehringer light units (BLU); mean over the file's lines of this peptide of 51.9.

PKMISNRRPVPRRP [YPR091C 655-668] registered a normalised SPOT signal, Boehringer light units (BLU); mean over the file's lines of this peptide of 5500.

Consider NSTAAAPIAAPKKP [YGL025C 234-247], for which the normalised SPOT signal, Boehringer light units (BLU); mean over the file's lines of this peptide worked out at 201.

Take NVYKIYNHVMPLKP [YNL236W 155-168]: the normalised SPOT signal, Boehringer light units (BLU); mean over the file's lines of this peptide came out at 0.

In turn, NVSSSSQPASSRP [YBL081W 344-356] showed a normalised SPOT signal, Boehringer light units (BLU); mean over the file's lines of this peptide of 136.

As to PITVEYPNEYPSKP [YDL064W 59-72], the normalised SPOT signal, Boehringer light units (BLU); mean over the file's lines of this peptide is 96.3.

Molecule PITGDVETNEPTKP [YMR042W 16-29] showed a normalised SPOT signal, Boehringer light units (BLU); mean over the file's lines of this peptide of 28.9.

NYVALWAKFFPEKP [YGR024C 108-121] came in with a normalised SPOT signal, Boehringer light units (BLU); mean over the file's lines of this peptide of 103.

As for PKKRGRKPKDPSKP [YML065W 327-340], the normalised SPOT signal, Boehringer light units (BLU); mean over the file's lines of this peptide stood at 32.6.

In turn, NSLLVLDPTYVKP [YOR198C 294-306] showed a normalised SPOT signal, Boehringer light units (BLU); mean over the file's lines of this peptide of 14.6.

In turn, NSSATKTPFVRRP [YGR285C 16-28] had a normalised SPOT signal, Boehringer light units (BLU); mean over the file's lines of this peptide of 4320.

For PKPKVQIPGLNRP [YDR266C 579-591], the normalised SPOT signal, Boehringer light units (BLU); mean over the file's lines of this peptide came out at 38700.

On to NSSSKKTSSHPSRP [YER047C 483-496], for which the normalised SPOT signal, Boehringer light units (BLU); mean over the file's lines of this peptide stood at 73.4.

As to NSQPVSYPRVSKP [YPL007C 81-93], the normalised SPOT signal, Boehringer light units (BLU); mean over the file's lines of this peptide worked out at 220.

On to PETREASLDIPYKP [YFL011W 29-42], for which the normalised SPOT signal, Boehringer light units (BLU); mean over the file's lines of this peptide came to 16.9.

PKTSIIYANLPNRP [YMR047C 1028-1041] registered a normalised SPOT signal, Boehringer light units (BLU); mean over the file's lines of this peptide of 97.2.

Consider NSEMASLPISPRP [YDR359C 196-208], for which the normalised SPOT signal, Boehringer light units (BLU); mean over the file's lines of this peptide came to 64.9.

As to PKIPRLVPHWEKP [YNL009W 115-127], the normalised SPOT signal, Boehringer light units (BLU); mean over the file's lines of this peptide came out at 520.

PAGINDSPSPVKP [YGR092W 45-57] yielded a normalised SPOT signal, Boehringer light units (BLU); mean over the file's lines of this peptide of 117.

For the molecule PEMLHVKDHQPGKP [YDR433W 131-144], the normalised SPOT signal, Boehringer light units (BLU); mean over the file's lines of this peptide stood at 120.

As for PLDLVKNIKLPAKP [YDL019C 243-256], the normalised SPOT signal, Boehringer light units (BLU); mean over the file's lines of this peptide is 383.

Consider NVTFRRDPNSFRP [YDR091C 569-581], for which the normalised SPOT signal, Boehringer light units (BLU); mean over the file's lines of this peptide was found to be 363.

On to PFEMVTEVPIPRRP [YGR156W 131-144], for which the normalised SPOT signal, Boehringer light units (BLU); mean over the file's lines of this peptide was found to be 688.

In turn, PANSTNNSNEPIRP [YMR081C 97-110] registered a normalised SPOT signal, Boehringer light units (BLU); mean over the file's lines of this peptide of 131.

Consider PKRRAPPPVPKKP [YIR003W 384-396], for which the normalised SPOT signal, Boehringer light units (BLU); mean over the file's lines of this peptide came out at 110000.

On to PSYSDTHLHGPFKP [YER134C 18-31], for which the normalised SPOT signal, Boehringer light units (BLU); mean over the file's lines of this peptide turned out to be 80.2.

Consider PESKSPRVTTPLKP [YJR083C 40-53], for which the normalised SPOT signal, Boehringer light units (BLU); mean over the file's lines of this peptide was found to be 140.

For NSLDLNQADNPLRP [YLL019C 65-78], the normalised SPOT signal, Boehringer light units (BLU); mean over the file's lines of this peptide stood at 23.6.

In turn, NVLFIKIPMFLRP [YGL195W 2278-2290] registered a normalised SPOT signal, Boehringer light units (BLU); mean over the file's lines of this peptide of 79.2.
